The values that follow come from PMC8865267 (mAbs, 2022).

Like-named read-outs stand apart in the source and are kept apart here.

In experiment [1] the target is human CTLA-4 with C-terminal Myc, poly-histidine and BirA biotinylation tag (Homo sapiens (Human).) (UniProt P16410). The experiment can be described thus: SPR. For orientation: SPR reads the build-up and loss of mass on a sensor chip optically.
In experiment [2] the target is CTLA-4 of activated primary human CD4+CD25+ T cells (human (endogenous in primary CD4+CD25+ …, UniProt P16410)). The experiment can be described thus: flow cytometry on cells. (In flow cytometry, cells or beads pass a laser one at a time.)
CTLA-4 of activated primary human CD4+CD25+ T cells (human, sequence (P16410 36-223): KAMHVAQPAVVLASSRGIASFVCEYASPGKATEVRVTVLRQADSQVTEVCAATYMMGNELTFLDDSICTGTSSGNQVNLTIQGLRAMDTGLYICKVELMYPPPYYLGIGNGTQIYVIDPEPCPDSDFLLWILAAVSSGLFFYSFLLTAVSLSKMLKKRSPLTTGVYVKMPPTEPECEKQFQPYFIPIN
Experiment [3] addresses CTLA-4 on BW cells expressing ~2,000 CTLA-4 receptor copies (Homo sapiens (Human)., UniProt P16410). Nature of the experiment: flow cytometry on cells.
Experiment [4] deals with T1, human CTLA-4 with C-terminal poly-histidine tag (crystallography construct) (human, UniProt P16410, glycans trimmed with EndoH). The experiment can be described thus: crystal structure.
T1 sequence (P16410 36-161): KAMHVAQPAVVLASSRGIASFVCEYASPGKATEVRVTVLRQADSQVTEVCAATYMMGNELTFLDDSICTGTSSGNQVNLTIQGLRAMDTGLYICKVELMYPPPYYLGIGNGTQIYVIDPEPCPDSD
Experiment [5] deals with T1, human CTLA-4 with C-terminal …. Nature of the experiment: crystal structure. The source holds these as a separate data set.

CTLA-4 on BW cells expressing ~2,000 CTLA-4 receptor copies, sequence (P16410 36-223): as the sequence (P16410 36-223) above

ipilimumab Fab: in experiment [1], the Kd (in general, the constant that tells how readily two partners part at equilibrium) was found to be 40 nM. That is a double-digit nanomolar value.

B1: Ipi.105 IgG1, non-fucosylated (antibody, V domains shown)
VH: QVQLVESGGGVVQPGRSLRLSCAASGFTFSHYTMHWVRQAPGKGLEWVTFISYDGHNKYYADSVKGRFTISRDNSKNTLYLQMNSLRAEDTAIYYCARTGWLGPFDYWGQGTLVTVSS
VL: EIVLTQSPGTLSLSPGERATLSCRASQEVGESELAWYQQKPGQAPRLLIYGAFSRATGIPDRFSGSGSGTDFTLTISRLEPEDFAVYYCQQYGSSPWTFGQGTKVEIK
For B1, the binding result in experiment [2] and in experiment [3] was “binds” throughout.

B2: Ipi.106 Fab (Fab, V domains shown)
VH: QVQLVESGGGVVQPGRSLRLSCAASGFTFSHYTMHWVRQAPGKGLEWVTFISYDGHNKYYADSVKGRFTISRDNSKNTLYLQMNSLRAEDTAIYYCARHGWLGPFDYWGQGTLVTVSS
VL: EIVLTQSPGTLSLSPGERATLSCRASQEVGESELAWYQQKPGQAPRLLIYGAFSRATGIPDRFSGSGSGTDFTLTISRLEPEDFAVYYCQQYGSSPWTFGQGTKVEIK
On to B2, for which the binding result in experiment [4] is given as “binds”.

B3: Ipi.106 IgG1, non-fucosylated (antibody, V domains shown)
VH: QVQLVESGGGVVQPGRSLRLSCAASGFTFSHYTMHWVRQAPGKGLEWVTFISYDGHNKYYADSVKGRFTISRDNSKNTLYLQMNSLRAEDTAIYYCARHGWLGPFDYWGQGTLVTVSS
VL: EIVLTQSPGTLSLSPGERATLSCRASQEVGESELAWYQQKPGQAPRLLIYGAFSRATGIPDRFSGSGSGTDFTLTISRLEPEDFAVYYCQQYGSSPWTFGQGTKVEIK
For the molecule B3, the binding result in experiment [2] and in experiment [3] was “binds” in each case.

B4: Ipi.105 Fab (Fab, V domains shown)
VH: QVQLVESGGGVVQPGRSLRLSCAASGFTFSHYTMHWVRQAPGKGLEWVTFISYDGHNKYYADSVKGRFTISRDNSKNTLYLQMNSLRAEDTAIYYCARTGWLGPFDYWGQGTLVTVSS
VL: EIVLTQSPGTLSLSPGERATLSCRASQEVGESELAWYQQKPGQAPRLLIYGAFSRATGIPDRFSGSGSGTDFTLTISRLEPEDFAVYYCQQYGSSPWTFGQGTKVEIK
Consider B4, for which the binding result in experiment [5] is “binds”.
